From the Immune Epitope Database (IEDB)

Tests used:
HLA-B*15:03 = experiment: IEDB peptide-MHC binding, purified MHC/competitive/radioactivity; filed as Kd, often an IC50 or EC50 that approximates it; ≥ and ≤ were set here for values at or beyond the usual limits of such assays; settings: source organism: Vaccinia virus WR
HLA-A*32:01 = experiment: as above; settings: source organism: Vaccinia virus WR
HLA-B*15:01 [1] = experiment: as above; settings: source organism: Vaccinia virus WR
HLA-B*07:02 [2] = experiment: IEDB peptide-MHC binding, purified MHC/competitive/fluorescence; filed as Kd, often an IC50 or EC50 that approximates it; ≥ and ≤ were set here for values at or beyond the usual limits of such assays
HLA-B*45:06 = experiment: as above; settings: source organism: Yersinia pestis Nepal516
HLA-B*83:01 = experiment: as above; settings: source organism: Yersinia pestis Nepal516
HLA-B*15:42 = experiment: as above; settings: source organism: Yersinia pestis Nepal516
HLA-B*51:01 = experiment: as above; settings: source organism: Yersinia pestis Nepal516
HLA-B*35:01 [3] = experiment: as above; settings: source organism: Yersinia pestis Nepal516
HLA-B*58:01 [4] = experiment: as above; settings: source organism: Salmonella enterica subsp. enterica serovar Typhi
HLA-B*15:01 [5] = experiment: as above; settings: source organism: Salmonella enterica subsp. enterica serovar Typhi
HLA-A*03:01 [6] = experiment: as above; settings: source organism: Salmonella enterica subsp. enterica serovar Typhi
HLA-A*01:01 [7] = experiment: as above; settings: source organism: Salmonella enterica subsp. enterica serovar Typhi
HLA-B*08:01 [8] = experiment: IEDB peptide-MHC binding, purified MHC/competitive/radioactivity; filed as Kd, often an IC50 or EC50 that approximates it; ≥ and ≤ were set here for values at or beyond the usual limits of such assays; settings: source organism: Vaccinia virus WR
HLA-A*30:01 = experiment: as above; settings: source organism: Vaccinia virus WR
HLA-B*40:01 = experiment: IEDB peptide-MHC binding, purified MHC/direct/fluorescence; filed as Kd, often an IC50 or EC50 that approximates it; ≥ and ≤ were set here for values at or beyond the usual limits of such assays; settings: source organism: Giardia lamblia ATCC 50803
HLA-A*26:01 = experiment: as above; settings: source organism: Giardia lamblia ATCC 50803
HLA-B*07:02 [9] = experiment: as above; settings: source organism: Giardia lamblia ATCC 50803
HLA-B*58:01 [10] = experiment: as above; settings: source organism: Giardia lamblia ATCC 50803
HLA-B*08:01 [11] = experiment: as above; settings: source organism: Giardia lamblia ATCC 50803
HLA-B*27:05 [12] = experiment: as above; settings: source organism: Giardia lamblia ATCC 50803
HLA-A*11:01 = experiment: as above; settings: source organism: Giardia lamblia ATCC 50803
HLA-A*31:01 = experiment: as above; settings: source organism: Giardia lamblia ATCC 50803
HLA-B*15:01 [13] = experiment: as above; settings: source organism: Giardia lamblia ATCC 50803
HLA-A*69:01 = experiment: as above; settings: source organism: Giardia lamblia ATCC 50803
HLA-A*02:01 = experiment: as above; settings: source organism: Giardia lamblia ATCC 50803
HLA-A*03:01 [14] = experiment: as above; settings: source organism: Giardia lamblia ATCC 50803
HLA-A*01:01 [15] = experiment: as above; settings: source organism: Giardia lamblia ATCC 50803
HLA-B*44:02 = experiment: as above; settings: source organism: Giardia lamblia ATCC 50803
HLA-B*35:01 [16] = experiment: as above; settings: source organism: Giardia lamblia ATCC 50803
HLA-B*27:05 [17] = experiment: IEDB peptide-MHC binding, purified MHC/competitive/fluorescence; filed as Kd, often an IC50 or EC50 that approximates it; ≥ and ≤ were set here for values at or beyond the usual limits of such assays; settings: source organism: Influenza A virus (A/Memphis/1/1978(H1N1))

ILAPNPNRF
Kd (HLA-B*15:03): 26.1 nM

ILVNQYSHM
Kd (HLA-B*15:03): 37.4 nM

KIYNVTNPF
Kd (HLA-B*15:03): 7.54 nM
Kd (HLA-A*32:01): 4.25 nM
Kd (HLA-B*15:01 [1]): 2.72 nM

LPACVYGLAV
Kd (HLA-B*07:02 [2]; source organism: Influenza A virus (A/parakeet/Narita/92A/98(H9N2))): 39.4 nM

MPAIFFSIV
Kd (HLA-B*07:02 [2]; source organism: Yersinia pestis Nepal516): 84.1 nM
Kd (HLA-B*45:06): ≥ 5000 nM
Kd (HLA-B*83:01): 642 nM
Kd (HLA-B*15:42): ≥ 5000 nM
Kd (HLA-B*51:01): 1320 nM
Kd (HLA-B*35:01 [3]): 1.2 nM

MTAAQIRRY
Kd (HLA-B*58:01 [4]): ≥ 20000 nM
Kd (HLA-B*15:01 [5]): 168 nM
Kd (HLA-A*03:01 [6]): 3500 nM
Kd (HLA-A*01:01 [7]): 243 nM

TSNWTGNYF
Kd (HLA-B*08:01 [8]): 15600 nM
Kd (HLA-A*30:01): 2270 nM
Kd (HLA-B*15:03): 894 nM
Kd (HLA-A*32:01): 11400 nM
Kd (HLA-B*15:01 [1]): 7730 nM

YQNHGFVSF
Kd (HLA-B*15:03): 2.43 nM
Kd (HLA-A*32:01): 358 nM
Kd (HLA-B*15:01 [1]): 0.173 nM

YQYGDNLIL
Kd (HLA-B*40:01): 77.7 nM
Kd (HLA-A*26:01): ≥ 20000 nM
Kd (HLA-B*07:02 [9]): ≥ 20000 nM
Kd (HLA-B*58:01 [10]): ≥ 20000 nM
Kd (HLA-B*08:01 [11]): ≥ 20000 nM
Kd (HLA-B*27:05 [12]): 430 nM
Kd (HLA-A*11:01): ≥ 20000 nM
Kd (HLA-A*31:01): ≥ 20000 nM
Kd (HLA-B*15:01 [13]): 89.2 nM
Kd (HLA-A*69:01): ≥ 20000 nM
Kd (HLA-A*02:01): 22.1 nM
Kd (HLA-A*03:01 [14]): ≥ 20000 nM
Kd (HLA-A*01:01 [15]): ≥ 20000 nM
Kd (HLA-B*44:02): ≥ 20000 nM
Kd (HLA-B*35:01 [16]): 410 nM

YRLFKHGLK
Kd (HLA-B*27:05 [17]): 217 nM
